For two substances, Released activity (units) of GalNAc-transferase and percent of applied activity bound results are on record in patent US5691180.

The target in test [1] is iminobiotinylated bovine fetuin (bovine) (UniProt P12763).
For test [2], the target named is IgG-Sepharose (Pharmacia). The experiment in a line: IgG-Sepharose batch adsorption of conditioned medium, GalNAc-transferase activity assayed on the beads (Table 1B, Sepharose-IgG: applied 4914, flowthrough 214, bound 1853 units).

Consider “protein A-GalNAc-transferase fusion protein (pPROTA-CTc) (from UniProt P38507) (enzyme)”, for which the Released activity (units) of GalNAc-transferase in test [1] was 9830 units. The substance also returned a percent of applied activity bound in test [2] of 37%. Regarding “UDP-GalNAc: NeuAcα2,3Galβ-R β1,4-N-acetyl-galactosamine-transferase encoded by pCDM8-CT (full-length, wild type enzyme)”, the Released activity (units) of GalNAc-transferase in test [1] was determined as 8390 units.
